The target of the assay is T1, thermolysin-generated VSV Gect (aa residues 1-422) (Vesicular stomatitis virus, UniProt P0C2X0 17-438).
T1 chain: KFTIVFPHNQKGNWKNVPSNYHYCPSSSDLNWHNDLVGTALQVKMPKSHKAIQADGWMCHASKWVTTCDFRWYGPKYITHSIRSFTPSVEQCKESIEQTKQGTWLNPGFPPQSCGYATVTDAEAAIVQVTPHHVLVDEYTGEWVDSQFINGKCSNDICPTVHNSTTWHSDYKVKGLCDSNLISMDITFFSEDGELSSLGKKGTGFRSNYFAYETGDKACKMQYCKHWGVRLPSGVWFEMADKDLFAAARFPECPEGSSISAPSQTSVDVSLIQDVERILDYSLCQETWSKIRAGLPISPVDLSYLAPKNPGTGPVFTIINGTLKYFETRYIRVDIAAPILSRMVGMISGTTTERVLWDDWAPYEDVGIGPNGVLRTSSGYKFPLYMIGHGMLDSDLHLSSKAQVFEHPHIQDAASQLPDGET
Briefly: BLI. A general note: In BLI a coated tip is dipped into the sample, and binding shifts an interference pattern.

B1: recombinant Fab 8G5F11 (Fab, V domains shown)
VH: DVQLQESGPDLVKPSQSLSLTCTVTGYSITSGYSWHWNRQFPGNKLEWMGYIHYSGLTNYNPSLKSRISITRHTSKNQFFLQLNSVTTEDTATYYCVRGGYDGRDYYAMDFWGQGTSVTVSS
VL: DIVMTQSHKFMSTSVGDRVSITCKASQDVDNDVAWYQQKPGQSPKLLIYWASTRHTGVPDRFTGSGSGTDFTLTISDVQSEDLSDYFCQQYSSYPFTFGGGTRLEIK
In the case of B1, the Kd (commonly the equilibrium constant for the complex coming apart) was 0.72 nM.

B2: monoclonal antibody 8G5F11 (antibody, V domains shown)
VH: B1 VH
VL: B1 VL
In turn, B2 registered a Kd of 1.01 nM.

The values above are taken from PMC12574954 (2025).
